Here are results for 20 molecules from US20260193326A1 (published 2026).

The target of test [1] is T1, AAV8 (adeno-associated virus 8).
T1 construct: also called adeno-associated virus serotype 8
Nature of the test: SPR, AAV amine-coupled to CM5 chip.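 Note: nanobodies flowed as analyte at seven concentrations spanning 1–100 nM over immobilized AAV (500–800 RU), kinetic constants derived by fitting the binding curves.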 On the technique in general: In SPR one partner is held on a chip, and binding of the other changes the refractive index at the surface.
Protocol: (§1) AAV was amine-coupled to a CM5 sensor chip at a density of 500-800 response units (RU). Nanobodies were injected at seven concentrations (1-100 nM) with a flow rate of 45 μL/min, and chip regeneration was performed using glycine-HCl (pH 1.5). Binding curves at different nanobody concentrations were used to calculate kinetic parameters (Kₐ, Kd, KD) (Table 2 and FIG. 2).

Test [2] addresses T2, AAV9 (adeno-associated virus 9).
T2 construct: also called adeno-associated virus serotype 9
Nature of the test: SPR, AAV amine-coupled to CM5 chip.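 Note: nanobodies flowed as analyte at seven concentrations spanning 1–100 nM over immobilized AAV (500–800 RU), kinetic constants derived by fitting the binding curves.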
Protocol: as §1

Test [3] deals with T3, AAV5 (adeno-associated virus 5).
T3 construct: also called adeno-associated virus serotype 5
Nature of the test: SPR, AAV amine-coupled to CM5 chip.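 Note: nanobodies flowed as analyte at seven concentrations spanning 1–100 nM over immobilized AAV (500–800 RU), kinetic constants derived by fitting the binding curves.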
Protocol: as §1

Test [4] addresses T4, AAV8.
T4 construct: also called adeno-associated virus serotype 8
Nature of the test: SPR, AAV on CM5 chip.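 Note: surface plasmon resonance with AAV amine-coupled to the chip as ligand, nanobodies injected as analyte over a concentration series, rate constants and affinity fitted from binding curves.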
Protocol: as §1

The target in test [5] is T5, AAV9.
T5 construct: also called adeno-associated virus serotype 9
Nature of the test: SPR, AAV on CM5 chip.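 Note: surface plasmon resonance with AAV amine-coupled to the chip as ligand, nanobodies injected as analyte over a concentration series, rate constants and affinity fitted from binding curves.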
Protocol: as §1

Test [6] concerns the target T6, AAV5.
T6 construct: also called adeno-associated virus serotype 5
Nature of the test: SPR, AAV on CM5 chip.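 Note: surface plasmon resonance with AAV amine-coupled to the chip as ligand, nanobodies injected as analyte over a concentration series, rate constants and affinity fitted from binding curves.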
Protocol: as §1

Changes are numbered by the printed parent chain.

B1: A4-055 (VHH)
VHH: VQLQESGGGLVQPGGSLRLSCAASGSIFSINTMGWYRQAPGKQRELVAAVTRGGSTNYADSVKGRFTISRDNAKNTVYLQMNSLRPEDTAVYYCHVDEVRQSSWTTSNLWGQGTQVTVSS
By Kd is commonly meant the concentration at which binding is half-saturated. A low value points to tighter binding. One may read the koff as the rate constant with which the complex falls apart. The low end stands for slow dissociation, the high end for fast dissociation. The term kon denotes a measure of how fast the partners come together. In test [1], B1 showed a Kd of 2.23 nM, a koff of 0.00044 s⁻¹ and a kon of 198000 M⁻¹ s⁻¹. In test [2], this molecule gave a Kd of 4.06 nM, an off-rate constant (koff) of 0.00032 s⁻¹ and a kon of 78800 M⁻¹ s⁻¹. In test [3], this molecule showed a Kd of 1.11 nM, a koff of 0.00022 s⁻¹ and a kon of 198000 M⁻¹ s⁻¹.

B2: A4-058 (VHH)
VHH: B1 VHH with G41A, L46I, A49T, G53D, D60E, V96L, S103T
In test [1], B2 displayed an equilibrium dissociation constant (Kd) of 33.4 nM, a koff of 0.00173 s⁻¹ and a kon of 51800 M⁻¹ s⁻¹. In test [2], this molecule had a Kd of 6.11 nM, an off-rate (koff) of 0.0012 s⁻¹ and an on-rate constant (kon) of 196000 M⁻¹ s⁻¹. Moreover, in test [3], binding was put at a Kd of 24.5 nM, the koff worked out at 0.00129 s⁻¹ and the kon was 52600 M⁻¹ s⁻¹.

B3: A4-037 (VHH)
VHH: B1 VHH with A49T, D60G, V96L, L109I
Consider B3, for which, in test [4], the Kd stood at 11.6 nM, the dissociation rate constant (koff) turned out to be 0.0015 s⁻¹ and the kon was determined as 129000 M⁻¹ s⁻¹. Further, in test [5], binding was put at a Kd of 4.07 nM, the dissociation rate constant (koff) worked out at 0.0004 s⁻¹ and the kon was 98300 M⁻¹ s⁻¹. Further, in test [6], the Kd was 0.88 nM, the koff is 0.00012 s⁻¹ and the kon was 136000 M⁻¹ s⁻¹.

B4: A4-035 (VHH)
VHH: B1 VHH with P13A, S26R, I27G, S55T
In test [4], B4 gave a Kd of 1.31 nM, a dissociation rate constant (koff) of 0.00017 s⁻¹ and a kon of 130000 M⁻¹ s⁻¹. For the same molecule, in test [5], the Kd was 1.73 nM, the koff turned out to be 0.0001 s⁻¹ and the kon stood at 57800 M⁻¹ s⁻¹. Also, in test [6], the Kd came out at 2.52 nM, the koff is 0.0005 s⁻¹ and the association rate constant (kon) was 199000 M⁻¹ s⁻¹.

B5: A4-031 (VHH)
VHH: B1 VHH with I27G, A49T, R52S, G53A, D60G, V99I
In test [4], B5 registered a Kd of 182 nM, a koff of 0.00923 s⁻¹ and an association rate constant (kon) of 50700 M⁻¹ s⁻¹. In test [5], this molecule displayed a Kd of 2240 nM, a koff of 0.00824 s⁻¹ and a kon of 3690 M⁻¹ s⁻¹. In test [6], this molecule gave a Kd of 41.9 nM, a koff of 0.00624 s⁻¹ and an on-rate constant (kon) of 149000 M⁻¹ s⁻¹.

B6: A4-029 (VHH)
VHH: B1 VHH with I27N, A39R, P40A, A49T, V96I, V99I, Q101E
Turning to B6, the Kd was found to be 0.486 nM in test [4], 14.6 nM in test [5] and 92.8 nM in test [6]. In addition, the values for the koff in test [4], in test [5] and in test [6] were 4e-05 s⁻¹, 0.00141 s⁻¹ and 0.00155 s⁻¹, respectively. The kon was found to be 82300 M⁻¹ s⁻¹ in test [4], 96900 M⁻¹ s⁻¹ in test [5] and 16700 M⁻¹ s⁻¹ in test [6].

B7: A4-050 (VHH)
VHH: B1 VHH with I27S, S29V
For B7, in test [4], the Kd worked out at 2.44 nM, the koff turned out to be 0.00043 s⁻¹ and the kon was determined as 176000 M⁻¹ s⁻¹. In test [5], this molecule came in with an equilibrium dissociation constant (Kd) of 2.52 nM, a koff of 0.00049 s⁻¹ and a kon of 194000 M⁻¹ s⁻¹. In test [6], this molecule registered a Kd of 7 nM, an off-rate (koff) of 7e-05 s⁻¹ and a kon of 10000 M⁻¹ s⁻¹.

B8: A4-030 (VHH)
VHH: B1 VHH with I27S, S29T, D60G, V77I, V99I
In test [4], B8 had a Kd of 43.7 nM, a dissociation rate constant (koff) of 0.00034 s⁻¹ and a kon of 7780 M⁻¹ s⁻¹. In test [5], the Kd turned out to be 27.2 nM, the off-rate (koff) turned out to be 0.00025 s⁻¹ and the kon was found to be 9200 M⁻¹ s⁻¹. In addition, in test [6], the dissociation constant Kd was determined as 84.4 nM, the koff is 0.00028 s⁻¹ and the kon was found to be 3320 M⁻¹ s⁻¹.

B9: A4-036 (VHH)
VHH: B1 VHH with V11A, P13A, S26R, I27G, S55T
In test [4], B9 yielded a Kd of 336 nM, a koff of 0.00225 s⁻¹ and a kon of 6700 M⁻¹ s⁻¹. In test [5], the affinity, expressed as Kd, was 1620 nM; the koff is 0.00944 s⁻¹; the on-rate constant (kon) was 5810 M⁻¹ s⁻¹. In test [6], this molecule had a Kd of 810 nM, a koff of 0.00621 s⁻¹ and an on-rate constant (kon) of 7670 M⁻¹ s⁻¹.

B10: A4-040 (VHH)
VHH: B1 VHH with S26R, A49T, V99I
In test [4], B10 displayed a Kd of 1.71 nM, a koff of 0.00028 s⁻¹ and a kon of 164000 M⁻¹ s⁻¹. In test [5], the affinity, expressed as Kd, was 2.19 nM; the off-rate (koff) came out at 0.00022 s⁻¹; the on-rate (kon) is 101000 M⁻¹ s⁻¹. In test [6], this molecule yielded a dissociation constant Kd of 3.04 nM, a koff of 0.00022 s⁻¹ and a kon of 72300 M⁻¹ s⁻¹.

B11: A4-045 (VHH)
VHH: B1 VHH with I27S, S55V
B11: in test [4], the Kd is 1.07 nM, the koff came to 1e-05 s⁻¹ and the kon came out at 9390 M⁻¹ s⁻¹. In test [5], this molecule gave a Kd of 37.6 nM, an off-rate (koff) of 0.00027 s⁻¹ and a kon of 7190 M⁻¹ s⁻¹. In test [6], this molecule gave a Kd of 41.3 nM, a dissociation rate constant (koff) of 0.00037 s⁻¹ and a kon of 8950 M⁻¹ s⁻¹.

B12: A4-052 (VHH)
VHH: B1 VHH with S29I
For the molecule B12, in test [1], the Kd amounted to 47.6 nM and the koff was 0.00151 s⁻¹. Further, in test [2], the dissociation constant Kd is 7.38 nM, the koff was determined as 0.00077 s⁻¹ and the on-rate constant (kon) came out at 104000 M⁻¹ s⁻¹. In test [3], this molecule registered an equilibrium dissociation constant (Kd) of 388 nM, an off-rate (koff) of 0.00056 s⁻¹ and a kon of 1440 M⁻¹ s⁻¹.

B13: A4-059 (VHH)
VHH: B1 VHH with L10A, I27H, I30L, Q38R, A49T, V77I, S103T
For B13, the results for the dissociation constant Kd in test [1], in test [2] and in test [3] were 29 nM, 0.514 nM and 16.6 nM, respectively. Moreover, the off-rate (koff) in test [1] amounted to 0.00094 s⁻¹; in test [2], 6e-05 s⁻¹; in test [3] it was 0.00091 s⁻¹. The kon in test [1] amounted to 32500 M⁻¹ s⁻¹; in test [2], 117000 M⁻¹ s⁻¹; in test [3], 54900 M⁻¹ s⁻¹.

B14: A4-057 (VHH)
VHH: B1 VHH with L46K
For B14, the equilibrium dissociation constant (Kd) in test [1] was 103 nM; in test [2], 53.3 nM; in test [3], 64.4 nM. Further, the koff came to 0.00031 s⁻¹ in test [1], 0.00049 s⁻¹ in test [2] and 0.00027 s⁻¹ in test [3]. Further, the kon in test [1] was 3020 M⁻¹ s⁻¹; in test [2], 9190 M⁻¹ s⁻¹; in test [3] it was 4200 M⁻¹ s⁻¹.

B15: A4-049 (VHH)
VHH: B1 VHH with I27M, S55N, D60G
Regarding B15, in test [4], the Kd came out at 20.8 nM, the off-rate constant (koff) came to 0.00056 s⁻¹ and the association rate constant (kon) was found to be 26900 M⁻¹ s⁻¹. Also, in test [5], the Kd is 93.1 nM, the off-rate constant (koff) came out at 0.00194 s⁻¹ and the on-rate constant (kon) amounted to 20800 M⁻¹ s⁻¹. In test [6], this molecule came in with a Kd of 9.61 nM, a koff of 0.00158 s⁻¹ and a kon of 164000 M⁻¹ s⁻¹.

B16: A4-042 (VHH)
VHH: B1 VHH with S26R, I27A, A49T, G53D
In test [4], B16 registered a dissociation constant Kd of 125 nM, a dissociation rate constant (koff) of 0.00042 s⁻¹ and an on-rate constant (kon) of 3360 M⁻¹ s⁻¹. In test [5], this molecule showed a Kd of 308 nM, a koff of 0.00144 s⁻¹ and a kon of 4680 M⁻¹ s⁻¹. In test [6], the Kd is 152 nM, the koff amounted to 0.00118 s⁻¹ and the association rate constant (kon) came to 7760 M⁻¹ s⁻¹.

B17: A4-053 (VHH)
VHH: B1 VHH with S29I, Q38R
In test [1], B17 gave an equilibrium dissociation constant (Kd) of 15.7 nM, a dissociation rate constant (koff) of 0.00146 s⁻¹ and a kon of 93200 M⁻¹ s⁻¹. In test [2], the Kd worked out at 2.6 nM, the koff came out at 0.00048 s⁻¹ and the on-rate (kon) was 185000 M⁻¹ s⁻¹. In test [3], this molecule displayed a Kd of 7.52 nM, a koff of 0.00121 s⁻¹ and an on-rate (kon) of 161000 M⁻¹ s⁻¹.

B18: A4-043 (VHH)
VHH: B1 VHH with S26R, I27A, A49T, G53D, D60G
In test [4], B18 had a Kd of 5.45 nM, an off-rate (koff) of 0.00104 s⁻¹ and a kon of 191000 M⁻¹ s⁻¹. In test [5], this molecule displayed a Kd of 0.278 nM, an off-rate (koff) of 4e-05 s⁻¹ and an on-rate constant (kon) of 144000 M⁻¹ s⁻¹. In test [6], this molecule gave a Kd of 7.73 nM, a koff of 0.00028 s⁻¹ and a kon of 36200 M⁻¹ s⁻¹.

B19: A4-033 (VHH)
VHH: B1 VHH with A22V, I27S, Q38R, A49T, G53D, D60N
In test [4], B19 had a Kd of 89.2 nM, an off-rate constant (koff) of 0.00034 s⁻¹ and a kon of 3810 M⁻¹ s⁻¹. In test [5], this molecule registered a Kd of 199 nM, a dissociation rate constant (koff) of 0.00045 s⁻¹ and an association rate constant (kon) of 2270 M⁻¹ s⁻¹. In test [6], this molecule returned a Kd of 243 nM, a koff of 0.002 s⁻¹ and an association rate constant (kon) of 8220 M⁻¹ s⁻¹.

B20: A4-041 (VHH)
VHH: B1 VHH with S26R, I27G, A49T, D60N, V99L
In test [4], B20 had a Kd of 1980 nM, a dissociation rate constant (koff) of 0.00245 s⁻¹ and a kon of 1240 M⁻¹ s⁻¹. In test [5], this molecule displayed a Kd of 8.15 nM, an off-rate constant (koff) of 0.00142 s⁻¹ and a kon of 174000 M⁻¹ s⁻¹. In addition, in test [6], binding was characterised by a dissociation constant (Kd) of 45.9 nM, the koff turned out to be 0.00616 s⁻¹ and the kon came to 134000 M⁻¹ s⁻¹.
